Experimental data as given in article PMC11964265, “Eating the brain - A multidisciplinary study provides new insights into the mechanisms underlying the cytopathogenicity of Naegleria fowleri” (PLOS Pathogens, 2025).

Target: the molecule itself
Assay: SEC; analytical size-exclusion chromatography, Superdex 200 Increase 10/300 GL, 20 mM Tris-HCl, 150 mM NaCl, pH 7.5; mass from calibration with Gel Filtration Standard (Bio-Rad)

B1: Naegleria fowleri lysozyme (recombinant) (natural protein)
chain: MSSYYTKEQFFRALHQVESKGQLNPPDGDKGRAIGPLQIWEVYWKDSGIQESYQSVRKFEIAKKCVNRFMKRYAENEWGPTMTIDQVEKCARIHNGGPRGHLKPETDDYWERFKEALENLDDEEVVVVEENDNNDDDQDDNEEESKDHRELLKIGMSGADVEEIQQQLADLGYDLGSYGADGKFGKATQQAVMKFQQDHDLAVDGIVGKETRKALNLEKGEDDQEQQEVADDQQEDDDEQQQQQNKDQPQEQDEEETTNEVKEEEQNDDEHEDPQEEEEQQQEDEQEDPQEEQQEDEDQQEDNDEENDQQQEDDDDQEQQQEEEEQEDPQEEEEQQNDDDDQQDDMEEQQDGDDDNDDDDA
notes: Cloned into pET42b with NdeI/XhoI sites in the primers; Pentamer by analytical SEC only; also called Nf lysozyme; source: E. coli BL21(DE3), purified (Ni-NTA agarose, native conditions)
  stoichiometry N: 5
